Reference: patent publication US7364737 (Scripps Research, dated 2008)

B1: Fab clone 19 (Fab, V domains shown)
VH: QVKLLEESGGGLVRLAGSLRLSCAASGTTLSGYTMHWVRQAPGKGLEWVSSITGGSNFINYSDSVKGRFTISRDNAKNSLYLQMNSLTAEDTAVYYCATAPIAPPYFDHWGQGTLVTVSS
VL: ELTQSPSSLSASVGDRVTITCRATQSVSNFLNWYQQKPGEAPTLLIYDASTSQSGVPSRFSGSGSGMDFSLTISSLQPEDLAMYYCQASINTPLFGGGTRIDMR
notes: Human IgG1 kappa Fab made as soluble Fab in E. coli; Variable domains are identical to clone 13; also called Fab 19; RSV Fab 19
B2: Fab clone 13 (Fab, V domains shown)
VH: B1 VH
VL: B1 VL
notes: Human IgG1 kappa Fab made as soluble Fab in E. coli; Variable domains are identical to clone 19; also called Fab 13; rsv 13H/13L
B3: Fab clone 11 (Fab, V domains shown)
VH: VKLLEQSGGGLVQPGGSLRLSCAVSGVTFSAYAMSWVRQAPGKGLEWVSGISGSGDSTDYADSVKGRLTISRDNSKNTLYLQMNSLRAEDTAIYYCASHLPDYWNLDYTRFFYYMDVWGKGTTVTVSS
VL: ELTQSPGTLSLSPGERATLSCRATQSISSNYLAWYQQRPGQAPRLLIYGASNRATDIPDRFSGSGSGTDFTLTISRLEPEDFAMYYCQQYDISPYTFGQGTKLEIK
notes: Human IgG1 kappa Fab from a pComb3 phage library, made as soluble Fab in E. coli; also called Fab 11; rsv 11H/11L

These binders were tested against RSV (subgroup A) F glycoprotein (respiratory syncytial virus subgroup A …, UniProt P03420 26-574) (assay: cell-based or functional assay).
Sequence of RSV (subgroup A) F glycoprotein (P03420 26-574): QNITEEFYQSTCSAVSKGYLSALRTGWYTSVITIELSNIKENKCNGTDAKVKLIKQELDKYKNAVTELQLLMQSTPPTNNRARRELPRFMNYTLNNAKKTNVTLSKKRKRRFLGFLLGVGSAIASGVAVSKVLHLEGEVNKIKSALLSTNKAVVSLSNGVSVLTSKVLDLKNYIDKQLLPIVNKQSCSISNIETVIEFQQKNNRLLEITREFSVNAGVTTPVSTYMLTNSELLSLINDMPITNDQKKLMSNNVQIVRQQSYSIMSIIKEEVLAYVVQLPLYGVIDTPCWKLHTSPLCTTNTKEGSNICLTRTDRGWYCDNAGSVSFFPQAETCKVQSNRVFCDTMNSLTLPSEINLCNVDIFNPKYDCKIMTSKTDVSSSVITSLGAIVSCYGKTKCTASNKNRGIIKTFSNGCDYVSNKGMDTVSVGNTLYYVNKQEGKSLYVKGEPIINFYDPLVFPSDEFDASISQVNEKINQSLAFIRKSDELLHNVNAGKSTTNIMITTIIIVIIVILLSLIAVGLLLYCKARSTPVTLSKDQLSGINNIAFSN

Row | Binder | Concentration of Fab Needed for 60% Plaque Reduction (µg/ml), RSV; purified from lysate [µg/mL] | Maximum Neutralization of RSV (Subgroup A); purified from lysate [%]
1 | B1 | 0.4 | 100
2 | B2 | 0.2 | 98
3 | B3 | 1.8 | 88

What follows are binders tested against T1, baculovirus-expressed FG fusion glycoprotein (respiratory syncytial virus, UniProt P03420 26-489; P03423 97-279) (assay: inhibition ELISA, free FG against coated FG).
T1 construct: also called RSV FG glycoprotein; recombinant FG glycoprotein
T1 sequence (P03420 26-489, tags or fused parts left off): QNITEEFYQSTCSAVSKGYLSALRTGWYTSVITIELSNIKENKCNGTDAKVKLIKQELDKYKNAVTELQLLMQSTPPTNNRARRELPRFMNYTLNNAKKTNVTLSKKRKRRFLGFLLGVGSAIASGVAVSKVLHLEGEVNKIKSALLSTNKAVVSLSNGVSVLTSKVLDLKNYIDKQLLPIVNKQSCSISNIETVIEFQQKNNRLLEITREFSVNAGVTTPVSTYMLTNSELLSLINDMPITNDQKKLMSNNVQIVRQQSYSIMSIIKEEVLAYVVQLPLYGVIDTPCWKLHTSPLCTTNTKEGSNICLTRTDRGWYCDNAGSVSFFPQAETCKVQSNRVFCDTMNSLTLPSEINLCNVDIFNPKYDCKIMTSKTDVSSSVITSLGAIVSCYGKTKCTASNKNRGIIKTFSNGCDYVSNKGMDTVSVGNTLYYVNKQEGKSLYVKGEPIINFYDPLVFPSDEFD

Row | Binder | Ka [M⁻¹]
4 | B1 | ~1e+08
5 | B2 | ~1e+08
6 | B3 | ~1e+08
